# Measurements: IntAct's records for PubMed 22118466
# B1: Phosphatidylinositol-binding clathrin assembly protein (Rattus norvegicus (Rat)), O55012 (parent)
# chain: MSGQSLTDRITAAQHSVTGSAVSKTVCKATTHEIMGPKKKHLDYLIQCTNEMNVNIPQLADSLFERTTNSSWVVVFKSLITTHHLMVYGNERFIQYLASRNTLFNLSNFLDKSGLQGYDMSTFIRRYSRYLNEKAVSYRQVAFDFTKVKRGADGVMRTMNTEKLLKTVPIIQNQMDALLDFNVNSNELTNGVINAAFMLLFKDAIRLFAAYNEGIINLLEKYFDMKKNQCKEGLDIYKKFLTRMTRISEFLKVAEQVGIDRGDIPDLSQAPSSLLDALEQHLASLEGKKIKDSTAASRATTLSNAVSSLASTGLSLTKVDEREKQAALEEEQARLKALKEQRLKELAKKPHTSLTTAASPVSTSAGGIMTAPAIDIFSTPSSSNSTSKLPNDLLDLQQPTFHPSVHAMSAAPQVASTWGDAVDDAIPSLNPFLTKSSGDVHLPISSDVSTFTTRTPTHEMFVGFSPSPVTQPHPSAGLNVDFESVFGNKSTNVAVDSGGGLLKPTVASQNQSLPVAKLPPNKLVSDDLDSSLANLVGNLGIGNGTTKNDVSCSQPGEKKLTGGSNWQPKVAPTTAWSAATMAPPVMAYPATTPTGMIGYGIPPQMGSVPVMTQPTLIYSQPVMRPPNPFGPVPGAQIQFM
# partner: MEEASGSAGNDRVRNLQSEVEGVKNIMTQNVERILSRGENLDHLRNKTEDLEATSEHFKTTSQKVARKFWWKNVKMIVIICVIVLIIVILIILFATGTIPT
# B2: Vesicle-associated membrane protein 8 (Mus musculus), O70404 (parent)
# chain: B1 partner
# partner: B1 chain
# Variants of: B1
# Conditions: with vamp8_mouse Vamp8, O70404
row,Variant,effect of a mutation on the interaction
1,F240A,disrupting interaction
2,L219S,disrupting interaction
3,I247D,disrupting interaction
4,D224K,disrupting interaction
5,L251S,disrupting interaction

# Variants of: B1
# Conditions: with vamp8_mouse Vamp8, O70404
# Remark: another data set of the same source
row,Variant,effect of a mutation on the interaction
1,M244K,disrupting interaction

# Variants of: B2
# Conditions: with pical_rat Picalm, O55012
row,Variant,effect of a mutation on the interaction
1,K24A;M27A,disrupting interaction
2,L16P;V23P,disrupting interaction
